How the values were obtained:
[1] = molecular target: T1, NSBP1 (HMGN5), wild type, recombinant (mouse, UniProt Q9JL35 1-406); test: cross-linking
T1 sequence (looked up): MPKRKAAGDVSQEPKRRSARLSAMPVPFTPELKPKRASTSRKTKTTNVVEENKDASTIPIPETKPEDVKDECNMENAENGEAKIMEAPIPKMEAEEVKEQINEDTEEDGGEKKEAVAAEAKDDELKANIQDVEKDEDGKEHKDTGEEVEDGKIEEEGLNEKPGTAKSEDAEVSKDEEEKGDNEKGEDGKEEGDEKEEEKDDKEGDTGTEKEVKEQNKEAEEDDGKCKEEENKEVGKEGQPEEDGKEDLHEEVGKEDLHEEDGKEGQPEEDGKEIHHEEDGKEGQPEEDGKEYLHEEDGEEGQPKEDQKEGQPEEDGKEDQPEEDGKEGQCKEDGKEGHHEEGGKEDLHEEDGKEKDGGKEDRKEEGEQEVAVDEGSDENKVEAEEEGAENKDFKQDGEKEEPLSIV

[2] = molecular target: T2, HMGB1 (from mouse thymus) (mouse, UniProt P63158 1-215); test: cross-linking
T2 sequence (looked up): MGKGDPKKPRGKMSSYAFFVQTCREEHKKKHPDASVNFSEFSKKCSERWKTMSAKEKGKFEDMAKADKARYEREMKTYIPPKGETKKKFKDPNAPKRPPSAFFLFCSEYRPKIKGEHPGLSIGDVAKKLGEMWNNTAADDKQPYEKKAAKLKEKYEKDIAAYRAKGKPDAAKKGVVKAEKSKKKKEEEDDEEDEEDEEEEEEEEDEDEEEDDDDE

B1: linker histone H5 (native, from chicken erythrocytes) (natural protein, UniProt P02259 1-190, looked up)
chain: MTESLVLSPAPAKPKRVKASRRSASHPTYSEMIAAAIRAEKSRGGSSRQSIQKYIKSHYKVGHNADLQIKLSIRRLLAAGVLKQTKGVGASGSFRLAKSDKAKRSPGKKKKAVRRSTSPKKAARPRKARSPAKKPKATARKARKKSRASPKKAKKPKTVKAKSRKASKAKKVKRSKPRAKSGARKSPKKK
[1]
  binding result: binds
[2]
  binding result: binds

Source: paper PMC2757144 (Molecular cell, 2009)
